The source of these data is the supplement of paper PMC12042874.

± gives the uncertainty stated by the source.

A short description of the series: amyloid nucleation score (Sup35N fusion, yeast selection) (log enrichment); library NNK1; higher = more nucleation; inactive = no reads after selection. A digest of the protocol:
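Nucleation score is defined as the DiMSum log enrichment of output over input reads, with centring on the mode score of non-aggregating sequences. A minimum of 100 input reads was required for each sequence. Reads came from Illumina sequencing of plasmid inserts from psi-negative yeast expressing Sup35N fused to peptides of 20 random codons, induced with 100 μM copper sulfate for 24 hours and grown 7 days at 30°C on medium lacking adenine and uracil.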
For EWLDALKANTIFYWKYGSMI, the amyloid nucleation score came out at 0.496 ± 0.63.

In turn, LKSYSTFVIRMNWLGDEGEL returned an amyloid nucleation score of -0.874 ± 0.8.

NMTAYSRCSSRTWYTVVFSG registered an amyloid nucleation score of 1.71 ± 0.15.

IYCGNSEF displayed an amyloid nucleation score of -0.048 ± 0.79.

The substance LIAVQWASMRQAWNIC showed an amyloid nucleation score of 0.616 ± 1.2.

Take VNVNNLRRTYNIRWVVGPGL: the amyloid nucleation score worked out at 5.57 ± 0.064.

As for NLICNLVDNQFPVWQLLRIW, the amyloid nucleation score turned out to be 2.3 ± 0.17.

Take TYLRMCGSSTR: the amyloid nucleation score was -0.14 ± 0.3.

Regarding YSCWFKHRTALPIGSEGMTR, the amyloid nucleation score is 0.708 ± 0.53.

With RALALEPNSI, the amyloid nucleation score result was “inactive”.

NLSCAE displayed an amyloid nucleation score of -0.288 ± 0.71.

Substance NYAYCSLVVEDSVK gave an amyloid nucleation score of 8.284 ± 0.063.

Turning to IQTKGNKDVIGVYITMYTRL, the amyloid nucleation score was -0.671 ± 0.28.

For ILHDNFKSSELFAWSAYCRY, the amyloid nucleation score entry was “inactive”.

Substance HLFRYSGTTSAV displayed an amyloid nucleation score of 0.386 ± 0.53.

The substance TNLMSFY displayed an amyloid nucleation score of -0.721 ± 1.1.

Take TVLKVSTEYFFLMKESGVVC: the amyloid nucleation score is 0.593 ± 0.26.

CRMRMLRKYVFLD registered an amyloid nucleation score of -0.427 ± 0.61.

Turning to IFSRSEEFVFFGHINSV, the amyloid nucleation score stood at 1.68 ± 0.32.

As to NRLWSIRK, the amyloid nucleation score is -0.425 ± 0.34.

RCGVRLF returned an amyloid nucleation score of -1.31 ± 1.2.

In turn, VVSTPHSN had an amyloid nucleation score of -0.099 ± 0.85.

In turn, YYRGCTWLAYPEERTALPRM came in with an amyloid nucleation score of 0.208 ± 0.27.

In turn, RRLQSNLSSCEASNPDTLRC registered an amyloid nucleation score of 0.774 ± 0.36.

Consider LNVRGITIKLCHFRRIWYAQ, for which the amyloid nucleation score was -1.25 ± 0.83.

As for VSKGLEHRPHVWG, the amyloid nucleation score was 5.35 ± 0.064.

Turning to YSVDKIAYFGINKCRTVLWE, the amyloid nucleation score amounted to 1.09 ± 0.52.

Substance KLFLLGAINGQFI gave an amyloid nucleation score of 4.87 ± 0.066.

In turn, VEIYGCTSPDQWSVANSCTA displayed an amyloid nucleation score of 0.047 ± 0.36.

Substance VIGSMVGLI had an amyloid nucleation score of 0.668 ± 0.31.

For the substance KTCSQSEKM, the amyloid nucleation score was -0.562 ± 0.3.

The substance LYLHNHGVWAYFKWCWGVRG came in with an amyloid nucleation score of -0.257 ± 0.53.

YFQTRSAKRVCSNQIHVLRW had an amyloid nucleation score of 3.08 ± 0.12.

Substance VGDWFSLVENWVVWSFSLIC came in with an amyloid nucleation score of -1.89 ± 2.1.

In the case of TYRCGHLLGFVY, the amyloid nucleation score entry is “inactive”.

Consider FLHHFQCKNTSN, for which the amyloid nucleation score entry was “inactive”.

The substance FPEHVPVSVYVCYRGYGRRV registered an amyloid nucleation score of -0.589 ± 0.61.

PLTKVFV showed an amyloid nucleation score of 0.167 ± 0.82.

As for LNRVEYS, the amyloid nucleation score came to 6.843 ± 0.068.

As to VMTFLISLSWYSL, the amyloid nucleation score was determined as 0.328 ± 0.23.

Consider TTTRVFS, for which the amyloid nucleation score was 0.813 ± 0.81.

Take SFSIGSFSAPLVAERFCCYT: the amyloid nucleation score came out at 0.163 ± 0.48.

LMHASHFFVGKMFLL: the amyloid nucleation score was 0.266 ± 0.28.

As for LDNRCKIRMVMMHSPRALRV, the amyloid nucleation score came to 0.893 ± 0.81.

For the substance TYDLPTYIILVSPQYLCANT, the amyloid nucleation score was -0.06 ± 0.27.

On to VRCVICCFCIWLKAWWDYKR, for which the amyloid nucleation score came out at 1.47 ± 0.45.

VRGSVGANGQHVPEDMTVRM had an amyloid nucleation score of 0.786 ± 0.44.

RAYTCRCEFAQGFVYNLIFS registered an amyloid nucleation score of 5.4 ± 0.079.

NRANSVVGQACRKSVIRNRF had an amyloid nucleation score of -0.144 ± 0.32.

Consider HYFPVIDQAICFDSFRPMPV, for which the amyloid nucleation score entry was “inactive”.

For SEIYSTWNKV, the amyloid nucleation score came to 0.002 ± 0.48.

Substance SLFSWVCRSITGPILRISLR came in with an amyloid nucleation score of 0.73 ± 0.24.

Substance SRVLSCEGWLK had an amyloid nucleation score of -0.051 ± 0.9.

In turn, FPDNVISIIDFR showed an amyloid nucleation score of -0.235 ± 0.54.

The substance YFAAVIRRFGWTDIERSHQC came in with an amyloid nucleation score of 0.233 ± 0.79.

As to MLRTSARSQRGNRGLAKMGF, the amyloid nucleation score is -1.87 ± 2.7.

QLLSLCLDQTVKRRYFNFRA came in with an amyloid nucleation score of -0.073 ± 0.26.

In turn, LVRLTCDMNNFKCQLMFQIF gave an amyloid nucleation score of 1.17 ± 0.38.

QMSVAG: the amyloid nucleation score came to 1.38 ± 0.28.

Consider GYEEFGVGRTSVPMETARLK, for which the amyloid nucleation score was -0.406 ± 0.44.

Consider RNIRIR, for which the amyloid nucleation score is -0.534 ± 0.25.

WINYRRDPTAHSNSYFRVGI yielded an amyloid nucleation score of 0.059 ± 0.58.

RFVCLLIGVSQLPQLRCEYR displayed an amyloid nucleation score of -1.17 ± 0.47.

For YSPDLSRASFCFLWYISSS, the amyloid nucleation score entry is “inactive”.

Substance DYLVQGLHILVKWGYDRTDG showed an amyloid nucleation score of -0.187 ± 0.5.

Consider GFPTPEPEDNVARSVRWIYS, for which the amyloid nucleation score is -1.47 ± 1.

SMSAQPFCNHV yielded an amyloid nucleation score of -0.926 ± 0.91.

In turn, SNYSQLLVMEVLHLGYTIRR gave an amyloid nucleation score of -1.19 ± 0.91.

For the substance PLWAPNSSNFAINRNQWRFN, the amyloid nucleation score came to 0.11 ± 0.57.

With QSSLMLYDERRSNWIKHLAT, the amyloid nucleation score was -0.232 ± 0.37.

As for IICICLVIISFRFCFSIKFM, the amyloid nucleation score was -2.57 ± 2.7.

PVHNRVINRILGSSLEVLEN showed an amyloid nucleation score of -0.123 ± 0.31.

With EMHFR, the amyloid nucleation score came out at 0.024 ± 0.65.

In the case of SELWPRVDYCLATYSINSYA, the amyloid nucleation score was -0.234 ± 0.3.

As to VFNARVSYSFNSMCWVRKKQ, the amyloid nucleation score is -2.08 ± 2.7.

MRLIVNSFTVGYEPRISWYV came in with an amyloid nucleation score of 1.22 ± 0.24.

In turn, FLPQAAWCKLYLIKLLNPPL displayed an amyloid nucleation score of 1.1 ± 0.98.

LLWDCVNLEGIEQFYCPHSD yielded an amyloid nucleation score of 0.382 ± 0.44.

Substance IRWTEL registered an amyloid nucleation score of 0.512 ± 0.24.

HYRSHSIGIRFAVSDWRIAF: the amyloid nucleation score was determined as 0.844 ± 0.46.

With ITPGLVAPSPDTKCSACDIL, the amyloid nucleation score was determined as 0.074 ± 0.34.

Substance WRSNI displayed an amyloid nucleation score of -0.151 ± 0.49.

TRYTKKWQVLTDWSVGYTGT: the amyloid nucleation score is -0.443 ± 0.41.

VCFWSGEGNLGAWDGHELSM showed an amyloid nucleation score of 0.693 ± 0.46.

Substance WTRSFRAFGSSVYWEGRGNH gave an amyloid nucleation score of 1.22 ± 0.26.

RWSRI displayed an amyloid nucleation score of -0.253 ± 0.23.

Substance NMGSFELWYYGLKASVGFAN gave an amyloid nucleation score of 0.513 ± 0.4.

For the substance MLVCILSVFDKNPR, the amyloid nucleation score turned out to be 2.78 ± 0.11.

Take DVAYRGSGYGFSYFYFGMFS: the amyloid nucleation score amounted to 0.547 ± 0.5.

GSNFTKVCILPSLHRTLLVG displayed an amyloid nucleation score of -0.222 ± 1.4.

On to TSYIQW, for which the amyloid nucleation score was -0.359 ± 0.29.

Consider GTGRVLVIAKALNYCCIS, for which the amyloid nucleation score came out at 6.811 ± 0.054.

In the case of RKGSGSRLKIYVYVTVTKIG, the amyloid nucleation score was 0.52 ± 0.93.

For DWAGMCFANSIHMDMLDRVL, the amyloid nucleation score was 0.336 ± 0.4.

As for CSCINSHLWSTSG, the amyloid nucleation score was determined as 0.386 ± 0.32.

Turning to WYKSYVITFITDTLVVDRET, the amyloid nucleation score came out at 2.41 ± 0.16.

With NSVYGTIDYGPHCFVNEGNF, the amyloid nucleation score result is “inactive”.

The substance FTLSPLGCVYYDT came in with an amyloid nucleation score of 0.712 ± 0.72.

For WTCMKSFVMWQSLDFVHFIA, the amyloid nucleation score was determined as 0.85 ± 0.98.

In the case of LNNSGVTTICLAGRVTFCTD, the amyloid nucleation score stood at 6.55 ± 0.075.

In turn, LYTYALARCIFISFMDCRMN displayed an amyloid nucleation score of 0.371 ± 0.26.

For FLGWICICPGQYRSAGPTAL, the amyloid nucleation score was -0.487 ± 0.43.

Take IMNMSSNIRK: the amyloid nucleation score was -0.539 ± 0.34.

YMFVMEKARTSIYLSMRNYC had an amyloid nucleation score of -0.419 ± 0.39.

ACDLNIIWADNSDYLIYVIS showed an amyloid nucleation score of 0.341 ± 0.36.

For NCDLECQSLRAYGLSCKKSR, the amyloid nucleation score was -0.22 ± 0.43.

As to VGIPGGWIQNITFSSMKDFF, the amyloid nucleation score came out at 4.9 ± 0.065.

For YTLFWNVEGNLWQTPSVCNL, the amyloid nucleation score came to 0.141 ± 0.95.

The substance RHHCKTCASYCFRIFIAEMM returned an amyloid nucleation score of 0.216 ± 0.42.

Turning to LQPLLISIKRRFLHYVSQNM, the amyloid nucleation score was -0.073 ± 0.66.

Substance TLGSIGLAIGRSTTGGRS registered an amyloid nucleation score of 0.51 ± 0.9.

Take VNSIESCANFH: the amyloid nucleation score was -0.198 ± 1.7.

In the case of VSIGILLFILPSRTGCVCLM, the amyloid nucleation score stood at 0.087 ± 0.66.

As for LFFVSRG, the amyloid nucleation score is -0.465 ± 1.6.

ECDRCYSYGCVDHKAALG: the amyloid nucleation score worked out at 0.629 ± 0.72.

GLGRSLKGHIMTAMRCMQGV registered an amyloid nucleation score of -0.691 ± 0.44.

With VSYLEGVRWLCIIYTGNRSW, the amyloid nucleation score entry is “inactive”.

TARFLTKFAPGQSMNAYRCG yielded an amyloid nucleation score of -0.033 ± 0.6.

With RCSCFY, the amyloid nucleation score result is “inactive”.

CVHTSVDDGRNYVKNLNDAR: the amyloid nucleation score entry is “inactive”.

The substance FGVRQVYINGNFLRCLGTKS came in with an amyloid nucleation score of 0.751 ± 0.93.

With WSLDSNKSWSCFKCLCFYCG, the amyloid nucleation score was found to be 6.223 ± 0.054.

For the substance DYVYHKAWKVKGTRAWKESL, the amyloid nucleation score is -0.266 ± 1.4.

For LAWSEYLMCLTRCHPIAV, the amyloid nucleation score amounted to 0.414 ± 0.54.

Substance TVFRTSFLWHGMGRGLVR returned an amyloid nucleation score of 1.03 ± 0.59.

In turn, QSNPSPISNMLNPDCLYKNG showed an amyloid nucleation score of -0.013 ± 0.2.

Turning to GVWVGIICKINLKYAFR, the amyloid nucleation score was 1.23 ± 0.34.

In turn, ITFERGYCTKNITFATTTCP showed an amyloid nucleation score of 1.23 ± 0.47.

On to VRDGDTMILGVYRNIWGTNV, for which the amyloid nucleation score turned out to be 0.429 ± 0.24.

VMMYLFYFHTRMCMSHLCYA displayed an amyloid nucleation score of -0.891 ± 1.6.

As to IILFNRILLV, the amyloid nucleation score result was “inactive”.

Turning to LFTFIGAVCFILNIACSLFF, the amyloid nucleation score was found to be 1.05 ± 0.58.

PYWLINIQEVTTD returned an amyloid nucleation score of 0.654 ± 0.48.

Take LFVDPL: the amyloid nucleation score stood at 1.06 ± 0.88.

The substance RIGNGVLKDYRLFFFETSFT displayed an amyloid nucleation score of -0.727 ± 0.36.

VRVVSTSRILFHGFFRNNKG came in with an amyloid nucleation score of 0.567 ± 0.33.

Substance VGSTKSDVTDFLDCMNGLEW had an amyloid nucleation score of 0.462 ± 0.63.

As to SNRLLGVEAGVGCEIVKYNR, the amyloid nucleation score is -0.301 ± 0.38.

Substance RLTNELLGVSIRLTSWFTFH returned an amyloid nucleation score of 0.606 ± 0.48.

GNSFISV: the amyloid nucleation score is -0.088 ± 0.81.
